The target of one assay is human A2aR (Homo sapiens, UniProt P29274). The assay is described as follows: In vitro blocking activity of purified humanized anti-A2aR antibodies and SMIs (cAMP-Glo, adenosine or NECA). Particulars: purified antibodies. The assay is classed as cell-based. Here is the method: The activity of A2aR is mediated by Gas protein which activates adenylyl cyclase, resulting in the synthesis of intracellular cAMP. The level of cAMP correlates with the respective adenosine (agonist) level. cAMP can be detected using a variety of commercial cAMP assay kit.
Sequence of human A2aR (P29274 whole entry): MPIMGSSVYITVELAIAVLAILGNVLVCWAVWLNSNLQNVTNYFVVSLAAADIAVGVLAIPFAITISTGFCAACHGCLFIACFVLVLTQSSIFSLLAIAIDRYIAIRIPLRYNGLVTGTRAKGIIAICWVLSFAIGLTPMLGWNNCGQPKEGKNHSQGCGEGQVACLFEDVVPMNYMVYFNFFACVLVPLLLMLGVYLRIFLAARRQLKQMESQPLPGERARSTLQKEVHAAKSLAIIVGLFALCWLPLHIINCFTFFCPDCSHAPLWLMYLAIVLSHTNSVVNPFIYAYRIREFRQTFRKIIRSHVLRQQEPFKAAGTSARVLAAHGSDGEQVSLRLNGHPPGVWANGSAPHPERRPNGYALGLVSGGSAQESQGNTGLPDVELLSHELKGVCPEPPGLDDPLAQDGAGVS
Briefly, clear flat bottom 96 well tissue culture plate (Fisher Scientific) was coated with 50 μl per well of 50 µg/ml poly-D-lysine (Gibco, Cat. A3890401) solution at 4° C. overnight. After 3 washes with sterile endotoxin free water, the coated culture plate was left uncovered in a biosafety cabinet to dry. Freshly thawed A2aR-overexpressing HEK293 cell (BPS Bioscience) were seeded on poly-D-lysine coated plates at 10^4/well in 100 μl culture medium for 24 hours in 37° C., 5% CO2 incubator. After wash with warmed PBS once, one hundred microliters (100 μl) starvation medium (MEM (Hyclone Cat. SH30024.01)+2% charcoal stripped serum (Thermo Fisher, Cat. A3382101)+1% Penicillin/Streptomycin) were added for overnight culture in an incubator at 37° C. and 5% CO2. […] Plates were read to obtain Relative Light Unit (RLU) on SpectraMax 5 reader (Molecular Device). Data were analyzed using Prism software.

Assay [1] concerns the target T1, human A2aR-expressing CHO cells (Homo sapiens, UniProt P29274).
T1 construct: expressed in transfected cells; host or cells: CHO
The experiment in a line: pH-sensitive dye (Zenon pHrodo iFL RED) based internalization assay. The assay is classed as cell-based. Conditions: 24 hours. From the text:
The Invitrogen™ Zenon™ pHrodo™ iFL RED human IgG Labeling Reagents (Cat. Z25612) Z25612) is low-pH sensitive dye and was used to determine the internalizing properties of the exemplary anti-A2aR antibodies following manufacture's instruction. The internalization of antibodies coupled with the Zenon™ pHrodo™ iFL RED human IgG Labeling reagents increase the fluorescence signal at low pH intracellular compartment in a cell, providing a method for visualizing internalization under fluorescent microscopy.
Twenty-five microliters (25 μL) of 4× working solution of Zenon™ pHrodo™ iFL IgG Labeling Reagent were also prepared in freestyle CHO expression medium and then added to each well of a 96-well plate containing antibodies. The solutions in the 96-well plate were mixed and incubated for 5 minutes at room temperature to allow the labeling complexes to form. Afterwards, fifty microliters (50 μl) of 2×10^6/ml human A2aR-expressing CHO cells were added to each well containing labeled antibodies. Cells were then incubated with the labeling complex for 24 hours under standard cell culture conditions. Cells were analyzed under immunofluorescent microscope (Invitrogen EVOS cell imaging system M5000) to visualize the internalization of antibodies by cells. Internalization of antibody was imaged using EVOS imaging systems (Invitrogen).

Assay [2] concerns cynomolgus A2aR on the cell surface of cynomolgus PBMCs. The experiment in a line: Binding of anti-A2aR antibodies to cynomolgus PBMC subsets (CD4 T, CD8 T, NK, NKT cells; FACS). Conditions: for binding (cross-reactivity) to cynomolgus T cells (CD4+, CD8+), NK cells and NKT cells: cynomolgus PBMCs, FACS. Here is the method:
Human and cynomolgus PBMCs were purchased from Cytologics LLC (San Diego, CA) and iQ Biosciences (Berkeley, CA), respectively. 10^6 human and/or cynomolgus PBMCs in 100 μl FACS buffer (1×DPBS, 2% FBS) were incubated with anti-A2aR antibodies at 4° C. for 30 minutes. After wash, samples were stained with PE-conjugated goat-anti-human Fc antibody (1:400, Jackson ImmunoResearch Labs, Cat. 109-116-098) and other surface markers using cynomolgus cross-reactive APC/cy7-anti-CD3 (BD Bioscience, Cat. 557757), BV421-anti-CD4 (Biolegend, Cat. 317433), BV650-anti-CD8 (Biolegend, Cat. 301042) and BV711-anti-CD56 (BD Bioscience, Cat. 742661) for 30 minutes, and Zombie Green fixable Viability dye (Biolegend, Cat. 423111) were used according to manufacturer's instruction to define live immune cell subsets. After wash with FACS buffer, cells were analyzed on FACSAria (BD). Data was analyzed using Flowjo (Becton Dickinson).

Assay [3] deals with human PBMCs (CD4 and CD8 T cells). The assay is described as follows: Restoration of CD25 and CD69 activation markers on NECA-suppressed CD4 and CD8 T cells. The assay is classed as cell-based. Particulars: test substance 1 μg/ml. The procedure: Two hundred thousand (2×10^5) human peripheral blood mononuclear cells (PBMCs) human PBMC in complete IMDM medium were aliquoted into each well in a 96-well plate and the cells in the 96-well plate were pre-incubated with antibodies or small molecule inhibitors at indicated concentration for 90 minutes, followed by addition of T cell activator anti-CD3/28 dynabeads (Gibco, Cat #11132D) at ratio of 1:4 (Beads: PBMC, v/v) and NECA (DiscoverX, Cat #92-1191, final concentration […]). Cells were cultured in an incubator at 37° C., 5% CO2 for 24 hours. Cells were then collected and stimulated with anti-CD3/28 dynabeads in the presence of GolgiPlug™ Protein Transport Inhibitor (BD Biosciences, Cat #555028) according to manufacturer's manual for 4 hours. Thereafter, cells were incubated with human TruStain FcX block (Biolegend, Cat #422302) and True-Stain monocyte blocker (Biolegend, Cat #426103) for 15 minutes according the manufacturer's manual, and cells were then stained with surface markers PE-anti-CD4 (Biolegend, Cat #300550), PerCP-cy5.5-anti-CD8 (Biolegend, Cat #301032), APC/cy7-anti-CD3 (Biolegend, Cat #300426) and PE/cy7-anti-CD56 (Biolegend, Cat #362509), PE/cy7-anti-CD56 (Biolegend, Cat #362509), BV711-anti-CD25 (Biolegend, Cat #302636) and BV605-anti-CD69 (Biolegend, Cat #31938 After wash with FACS buffer, cells were stained with BV421-anti-IFN-γ (BD Bioscience, Cat #562988) and APC anti-IL-2 (BD Bioscience, cat #551383) using intracellular cytokine staining kit (BD Biosciences, cat #555028) following manufacturer's instruction. Stained samples were analyzed on FACSAria III machine. Data were analyzed using Flowjo software.

Sequence of cynomolgus A2aR on the cell surface of cynomolgus PBMCs (as listed by the source): as the sequence (P29274 whole entry) above, with S263N, A371T, G379S, D407G counted along it
T1 sequence (P29274 whole entry): as the sequence (P29274 whole entry) above

B1: Hu3F6-H3/Hu3F6-L5: humanized anti-A2aR IgG1 FES antibody; HCVR SEQ ID NO:60, LCVR SEQ ID NO:80 (antibody, V domains shown)
VH: EVQLVQSGAEVKKPGASVKVSCKTSGFAFTSYWMNWVRQAPGQGLEWIGRIDPSDSEAHYHHKFWGRATLTVDTSSSTVYMELSSLRSEDTAVYYCLRSLYGKGDYWGHGTTVTVSS
VL: DVVMTQTPLSLSVTPGQPASISCRSSQSLVHRNGNTYLEWYLQKPGQSPQLLIYKVSNRFSGVPDRFSGSGSGTDFTLKISRVEAEDVGVYYCYQGSHVPLTFGGGTKVEIK
For B1, the “blocking of the activities of human A2aR expressed on cell surface (RLU, FIG. 1A, 1B)” value in the assay with human A2aR was “blocked the activities of human A2aR expressed on cell surface”. The “induction of internalization (pHrodo fluorescence microscopy, FIG. 3)” value in assay [1] is on record as “internalization can be induced”. For the same molecule, in assay [2] (Cynomolgus 1 PBMC), the “% of A2aR+ CD4+ T cells” value came out at 1.65%, the “% of A2aR+ CD8+ T cells” value came to 0.05%, the “% of A2aR+ NK cells” value was determined as 6.52% and the “% of A2aR+ NKT cells” value amounted to 1.06%. Further, in assay [2] (Cynomolgus 2 PBMC), the “% of A2aR+ CD4+ T cells” value stood at 1.20%, the “% of A2aR+ CD8+ T cells” value worked out at 0.11%, the “% of A2aR+ NK cells” value is given as 2.07% and the “% of A2aR+ NKT cells” value is listed as 0.45%. For the same molecule, in assay [2], the “binding (cross-reactivity) to cynomolgus T cells (CD4+, CD8+), NK cells and NKT cells” value was “bound to various human and cynomolgus CD4+ and CD8+ T cells”. Moreover, in assay [3], the “% of cells CD25+, CD4 T cells” value stood at 61.5%; the “% of cells CD25+, CD8 T cells” value is given as 36%; the “% of cells CD69+, CD4 T cells” value amounted to 57.9%; the “% of cells CD69+, CD8 T cells” value worked out at 54.5%.

B2: Hu3F6-H5/Hu3F6-L5: humanized anti-A2aR IgG1 FES antibody; HCVR SEQ ID NO:62, LCVR SEQ ID NO:80 (antibody, V domains shown)
VH: EVQLVQSGAEVKKPGASVKVSCKTSGFAFTSYWMNWVRQAPGQGLEWIGRIDPSDSEAHYAHKFWGRATLTVDKSSSTVYMELSSLRSEDTAVYYCLRSLYGKGDYWGHGTTVTVSS
VL: DVVMTQTPLSLSVTPGQPASISCRSSQSLVHRNGNTYLEWYLQKPGQSPQLLIYKVSNRFSGVPDRFSGSGSGTDFTLKISRVEAEDVGVYYCYQGSHVPLTFGGGTKVEIK
With B2, the “blocking of the activities of human A2aR expressed on cell surface (RLU, FIG. 1A, 1B)” value with human A2aR is “blocked the activities of human A2aR expressed on cell surface”. The “induction of internalization (pHrodo fluorescence microscopy, FIG. 3)” value in assay [1] is listed as “internalization can be induced”. Besides, in assay [2] (Cynomolgus 1 PBMC), the “% of A2aR+ CD4+ T cells” value was 4.76%, the “% of A2aR+ CD8+ T cells” value is on record as 0.15%, the “% of A2aR+ NK cells” value was found to be 5.71% and the “% of A2aR+ NKT cells” value came out at 4.14%. For the same molecule, in assay [2] (Cynomolgus 2 PBMC), the “% of A2aR+ CD4+ T cells” value is reported as 10.6%, the “% of A2aR+ CD8+ T cells” value worked out at 0.41%, the “% of A2aR+ NK cells” value amounted to 2.92% and the “% of A2aR+ NKT cells” value was determined as 4.28%. In addition, in assay [2], the “binding (cross-reactivity) to cynomolgus T cells (CD4+, CD8+), NK cells and NKT cells” value is “bound to various human and cynomolgus CD4+ and CD8+ T cells”. In assay [3], the “% of cells CD25+, CD4 T cells” value was 62.5%; the “% of cells CD25+, CD8 T cells” value stood at 35.8%; the “% of cells CD69+, CD4 T cells” value came out at 58.1%; the “% of cells CD69+, CD8 T cells” value worked out at 56.1%.

These data come from patent publication US20250206828A1, “ANTI-ADENOSINE RECEPTOR (A2aR) ANTIBODIES AND THE USE THEREOF” (Adept Therapeutics Inc., priority 2022, published 2025).
